The results in this text go back to US20220195407, “OPTIMIZATION OF ENGINEERED MEGANUCLEASES FOR RECOGNITION SEQUENCES” (Precision BioSciences, Inc., published 2022).

What all share (experiment): cell_activity; CHO iGFFP reporter
For one data set, the target named is T1, LOX 3-4m.2145 (artificial (I-CreI derived)).
T1 chain: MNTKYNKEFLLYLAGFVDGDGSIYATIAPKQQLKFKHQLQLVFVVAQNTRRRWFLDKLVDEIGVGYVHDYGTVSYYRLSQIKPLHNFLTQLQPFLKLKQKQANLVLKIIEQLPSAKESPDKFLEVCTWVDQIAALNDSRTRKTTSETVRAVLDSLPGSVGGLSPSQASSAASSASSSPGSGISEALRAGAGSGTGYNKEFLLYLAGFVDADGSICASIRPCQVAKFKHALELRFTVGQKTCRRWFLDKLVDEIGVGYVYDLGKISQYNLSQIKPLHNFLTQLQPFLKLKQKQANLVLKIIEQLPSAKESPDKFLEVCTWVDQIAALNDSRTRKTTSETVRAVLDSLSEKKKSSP
The text has this: (§1) A CHO cell reporter system (see WO/2012/167192, FIG. 3) was used to determine whether the engineered meganucleases generated in these studies could recognize and cleave the modified LOX 3-4 recognition sequences in Table 87. To perform the assay, a pair of CHO cell reporter lines were produced, which carried a non-functional Green Fluorescent Protein (GFP) gene expression cassette integrated into the genome of the cell. The GFP gene in each cell line was interrupted by a pair of recognition sequences such that intracellular cleavage of either recognition sequence by a meganuclease would stimulate a homologous recombination event resulting in a functional GFP gene. In both cell lines, one of the recognition sequences was derived from the LOX 3-4 recognition sequence (i.e., those sequences disclosed in Table 87), and the second recognition sequence was specifically recognized by a control meganuclease called “CHO 23/24.” CHO reporter cells comprising a recognition sequence derived from the LOX 3-4 recognition sequence and the CHO 23/24 recognition sequence are referred to herein as “test cells.”
(§2) Novel engineered meganucleases derived from the LOX 3-4x.109 meganuclease were prepared by making amino acid substitutions at one or more positions in the first subunit and one or more positions in the second subunit. These engineered meganucleases were then evaluated for cleavage of the LOX 3-4 recognition sequence modified to have a TTAA center sequence (SEQ ID NO: 341) in the CHO reporter assay according to Example 1. The substitutions in each subunit are provided in Tables 174 and 175, respectively.

Another data set addresses T2, LOX 3-4m.2151 (artificial (I-CreI derived)).
T2 chain: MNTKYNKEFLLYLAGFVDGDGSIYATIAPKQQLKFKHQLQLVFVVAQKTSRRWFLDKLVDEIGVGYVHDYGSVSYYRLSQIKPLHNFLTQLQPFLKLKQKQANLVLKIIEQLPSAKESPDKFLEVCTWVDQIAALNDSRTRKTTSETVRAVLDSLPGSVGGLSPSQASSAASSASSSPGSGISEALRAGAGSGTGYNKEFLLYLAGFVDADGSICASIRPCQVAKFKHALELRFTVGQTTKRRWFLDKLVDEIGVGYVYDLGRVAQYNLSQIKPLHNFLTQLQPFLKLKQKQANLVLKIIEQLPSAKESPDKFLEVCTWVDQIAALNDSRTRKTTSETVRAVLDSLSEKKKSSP
From the text: as §1, §2

Another data set deals with T3, LOX 3-4m.2125 (artificial (I-CreI derived)).
T3 chain: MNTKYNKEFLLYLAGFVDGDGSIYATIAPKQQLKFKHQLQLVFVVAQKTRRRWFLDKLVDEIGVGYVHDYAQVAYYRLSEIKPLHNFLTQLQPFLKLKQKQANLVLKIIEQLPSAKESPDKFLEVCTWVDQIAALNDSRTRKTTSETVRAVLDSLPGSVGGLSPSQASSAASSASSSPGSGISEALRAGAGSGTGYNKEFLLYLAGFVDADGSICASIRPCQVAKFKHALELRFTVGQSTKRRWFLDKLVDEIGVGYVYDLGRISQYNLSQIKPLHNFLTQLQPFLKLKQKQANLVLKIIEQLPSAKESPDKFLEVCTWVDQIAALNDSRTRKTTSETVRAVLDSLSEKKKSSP
From the text: as §1, §2

In another data set the target is T4, LOX 3-4m.2142 (artificial (I-CreI derived)).
T4 chain: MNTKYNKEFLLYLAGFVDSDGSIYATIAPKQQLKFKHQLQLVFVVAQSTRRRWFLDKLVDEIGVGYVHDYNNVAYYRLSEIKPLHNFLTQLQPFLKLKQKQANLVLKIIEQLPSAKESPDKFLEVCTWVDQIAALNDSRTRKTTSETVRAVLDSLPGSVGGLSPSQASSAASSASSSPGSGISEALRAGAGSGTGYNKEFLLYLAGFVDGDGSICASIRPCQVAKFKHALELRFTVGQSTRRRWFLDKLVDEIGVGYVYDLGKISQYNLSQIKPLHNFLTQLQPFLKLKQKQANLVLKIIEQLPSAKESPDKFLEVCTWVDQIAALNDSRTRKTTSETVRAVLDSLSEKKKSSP
From the text: as §1, §2

For the next data set, the target named is T5, LOX 3-4m.2157 (artificial (I-CreI derived)).
T5 chain: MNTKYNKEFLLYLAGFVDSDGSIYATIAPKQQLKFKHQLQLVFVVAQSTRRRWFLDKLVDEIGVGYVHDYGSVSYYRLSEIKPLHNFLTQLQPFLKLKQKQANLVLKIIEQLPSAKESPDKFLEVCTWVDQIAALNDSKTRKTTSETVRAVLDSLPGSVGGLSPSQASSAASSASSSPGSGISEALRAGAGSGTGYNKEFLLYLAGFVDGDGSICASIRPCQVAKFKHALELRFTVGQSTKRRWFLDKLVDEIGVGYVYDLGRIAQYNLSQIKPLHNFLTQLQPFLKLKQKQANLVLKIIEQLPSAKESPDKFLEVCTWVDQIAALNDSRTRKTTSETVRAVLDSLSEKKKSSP
From the text: as §1
(§3) Novel engineered meganucleases derived from the LOX 3-4x.109 meganuclease were prepared by making amino acid substitutions at one or more positions in the first subunit and one or more positions in the second subunit. These engineered meganucleases were then evaluated for cleavage of the LOX 3-4 recognition sequence modified to have a TCAA center sequence (SEQ ID NO: 331) in the CHO reporter assay according to Example 1.

In the next data set the target is T6, LOX 3-4m.2229 (artificial (I-CreI derived)).
T6 chain: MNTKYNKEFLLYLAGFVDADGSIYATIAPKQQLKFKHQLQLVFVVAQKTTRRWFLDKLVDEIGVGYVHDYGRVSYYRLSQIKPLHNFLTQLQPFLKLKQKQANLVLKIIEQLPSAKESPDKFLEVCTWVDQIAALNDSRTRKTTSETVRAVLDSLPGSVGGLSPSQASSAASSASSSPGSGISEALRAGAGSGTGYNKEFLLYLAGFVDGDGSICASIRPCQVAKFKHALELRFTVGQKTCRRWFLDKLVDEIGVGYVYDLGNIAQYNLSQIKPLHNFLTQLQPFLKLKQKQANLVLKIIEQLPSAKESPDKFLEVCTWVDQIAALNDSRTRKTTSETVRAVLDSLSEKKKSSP
From the text: as §1, §3

In another data set the target is T7, LOX 3-4m.2165 (artificial (I-CreI derived)).
T7 chain: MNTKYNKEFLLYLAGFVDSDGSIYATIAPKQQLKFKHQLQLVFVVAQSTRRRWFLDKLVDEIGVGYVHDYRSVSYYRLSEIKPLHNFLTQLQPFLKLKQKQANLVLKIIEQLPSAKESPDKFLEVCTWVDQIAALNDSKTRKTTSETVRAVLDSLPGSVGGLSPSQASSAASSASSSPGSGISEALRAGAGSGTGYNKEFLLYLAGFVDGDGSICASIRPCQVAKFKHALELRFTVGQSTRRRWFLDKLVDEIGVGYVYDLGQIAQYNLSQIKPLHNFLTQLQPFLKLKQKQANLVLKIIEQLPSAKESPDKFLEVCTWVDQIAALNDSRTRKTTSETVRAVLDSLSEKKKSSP
From the text: as §1, §3

A further data set concerns the target T8, LOX 3-4m.2189 (artificial (I-CreI derived)).
T8 chain: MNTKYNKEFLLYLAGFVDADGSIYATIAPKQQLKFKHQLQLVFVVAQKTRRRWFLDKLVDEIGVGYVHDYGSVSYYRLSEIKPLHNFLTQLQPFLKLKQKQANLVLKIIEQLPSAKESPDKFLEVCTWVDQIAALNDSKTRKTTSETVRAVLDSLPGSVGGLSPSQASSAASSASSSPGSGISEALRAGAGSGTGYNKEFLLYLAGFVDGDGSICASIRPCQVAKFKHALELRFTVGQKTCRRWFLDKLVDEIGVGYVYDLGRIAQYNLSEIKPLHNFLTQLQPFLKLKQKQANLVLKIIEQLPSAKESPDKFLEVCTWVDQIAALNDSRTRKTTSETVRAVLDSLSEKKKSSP
From the text: as §1, §3

In the next data set the target is T9, LOX 3-4m.1970 (artificial (I-CreI derived)).
T9 chain: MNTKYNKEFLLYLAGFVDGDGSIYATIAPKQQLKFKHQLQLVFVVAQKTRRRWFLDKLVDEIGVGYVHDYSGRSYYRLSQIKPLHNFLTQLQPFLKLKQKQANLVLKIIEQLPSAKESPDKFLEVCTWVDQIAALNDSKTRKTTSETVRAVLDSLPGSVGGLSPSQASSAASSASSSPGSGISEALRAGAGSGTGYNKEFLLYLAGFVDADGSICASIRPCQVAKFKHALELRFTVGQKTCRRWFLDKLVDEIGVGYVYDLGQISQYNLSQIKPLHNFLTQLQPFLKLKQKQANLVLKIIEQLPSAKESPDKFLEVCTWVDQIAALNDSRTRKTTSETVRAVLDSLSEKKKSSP
From the text: as §1
as §2, with “subunit. The N-terminal subunit recognizes the reverse complement of the AG portion of the four base pair center sequence, which is CT, and the C-terminal subunit recognizes the GC portion of the […] center sequence.” for “subunit.”, “TTGG” for “TTAA”, “248)” for “341)”, “177” for “174”, “178,” for “175,”

For a further data set, the target named is T10, LOX 3-4m.1981 (artificial (I-CreI derived)).
T10 chain: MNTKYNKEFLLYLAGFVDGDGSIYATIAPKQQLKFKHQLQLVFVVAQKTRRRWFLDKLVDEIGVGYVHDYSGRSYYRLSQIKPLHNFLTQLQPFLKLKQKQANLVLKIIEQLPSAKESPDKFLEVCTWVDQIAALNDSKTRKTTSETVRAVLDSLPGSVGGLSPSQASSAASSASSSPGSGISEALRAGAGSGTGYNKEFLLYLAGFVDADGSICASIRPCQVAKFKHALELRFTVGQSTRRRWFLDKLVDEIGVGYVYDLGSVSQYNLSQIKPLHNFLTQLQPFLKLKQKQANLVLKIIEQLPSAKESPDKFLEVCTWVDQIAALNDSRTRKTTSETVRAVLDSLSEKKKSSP
From the text: as §1
as §2, with “subunit. The N-terminal subunit recognizes the reverse complement of the AG portion of the four base pair center sequence, which is CT, and the C-terminal subunit recognizes the GC portion of the […] center sequence.” for “subunit.”, “TTGG” for “TTAA”, “248)” for “341)”, “177” for “174”, “178,” for “175,”

For a further data set, the target named is T11, LOX 3-4m.1973 (artificial (I-CreI derived)).
T11 chain: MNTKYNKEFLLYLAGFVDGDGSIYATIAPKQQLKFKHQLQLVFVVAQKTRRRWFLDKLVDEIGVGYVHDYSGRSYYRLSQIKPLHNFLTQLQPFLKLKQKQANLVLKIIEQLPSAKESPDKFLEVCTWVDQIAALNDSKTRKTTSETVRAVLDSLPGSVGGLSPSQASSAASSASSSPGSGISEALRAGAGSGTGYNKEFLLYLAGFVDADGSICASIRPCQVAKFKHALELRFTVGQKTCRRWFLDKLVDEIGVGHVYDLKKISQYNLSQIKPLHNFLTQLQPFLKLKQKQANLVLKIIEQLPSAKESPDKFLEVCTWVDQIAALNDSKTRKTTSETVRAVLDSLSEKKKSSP
From the text: as §1
as §2, with “subunit. The N-terminal subunit recognizes the reverse complement of the AG portion of the four base pair center sequence, which is CT, and the C-terminal subunit recognizes the GC portion of the […] center sequence.” for “subunit.”, “TTGG” for “TTAA”, “248)” for “341)”, “177” for “174”, “178,” for “175,”

Another data set concerns the target T12, LOX 3-4m.2045 (artificial (I-CreI derived)).
T12 chain: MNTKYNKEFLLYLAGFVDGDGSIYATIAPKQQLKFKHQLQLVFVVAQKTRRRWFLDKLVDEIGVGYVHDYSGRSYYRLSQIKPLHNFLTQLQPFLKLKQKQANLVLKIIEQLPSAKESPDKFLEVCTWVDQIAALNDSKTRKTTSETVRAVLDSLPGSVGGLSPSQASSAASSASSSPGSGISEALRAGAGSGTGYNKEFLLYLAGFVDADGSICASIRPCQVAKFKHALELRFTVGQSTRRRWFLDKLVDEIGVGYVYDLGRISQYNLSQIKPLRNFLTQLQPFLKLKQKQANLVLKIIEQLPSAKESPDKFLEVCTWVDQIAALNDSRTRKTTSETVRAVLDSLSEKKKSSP
From the text: as §1
as §2, with “subunit. The N-terminal subunit recognizes the reverse complement of the AG portion of the four base pair center sequence, which is CT, and the C-terminal subunit recognizes the GC portion of the […] center sequence.” for “subunit.”, “TTGG” for “TTAA”, “248)” for “341)”, “177” for “174”, “178,” for “175,”

B1: LOX 3-4 TTAA (dsDNA)
DNA 1: GTATAGCATTTAATATACGAAG
DNA 2: CTTCGTATATTAAATGCTATAC
Take B1: the activity with LOX 3-4m.2145 came out at 12.9 % GFP; with LOX 3-4m.2151, 13 % GFP; in the data set with LOX 3-4m.2125 it was 12.7 % GFP; in the data set with LOX 3-4m.2142 it was 13.9 % GFP.

B2: LOX 3-4 TCAA (dsDNA)
DNA 1: GTATAGCATTCAATATACGAAG
DNA 2: CTTCGTATATTGAATGCTATAC
In the case of B2, the activity with LOX 3-4m.2157 amounted to 9.79 % GFP; with LOX 3-4m.2229 it was 11.8 % GFP; in the data set with LOX 3-4m.2165, 10.3 % GFP; with LOX 3-4m.2189, 11.7 % GFP.

B3: LOX 3-4 TTGG (dsDNA)
DNA 1: GTATAGCATTTGGTATACGAAG
DNA 2: CTTCGTATACCAAATGCTATAC
B3: the activity with LOX 3-4m.1970 was 13.5 % GFP; with LOX 3-4m.1981, 13.5 % GFP; with LOX 3-4m.1973, 14.3 % GFP; with LOX 3-4m.2045, 14.2 % GFP.
